Measured values taken from a protein production outcome set (Wang et al. 2014).

assay: label from the status in PepcDB records

Sequence | protein production
MLGGIEAGGTKFVCAVGREDGTIIDRIEFPTKMPDETIEKVIQYFSQFSLQAIGIGSFGPVDNDKTSQTYGTITATPKAGWRHYPFLQTVKNEMKIPVGFSTDVNAAALGEFLFGEAKGLDSCLYITIGTGIGAGAIVEGRLLQGLSHPEMGHIYIRRHPDDVYQGKCPYHGDCFEGLASGPAIEARWGKKAADLSDIAQVWELEGYYIAQALAQYILILAPKKIILGGGVMQQKQVFSYIYQYVPKIMNSYLDFSELSDDISDYIVPPRLGSNAGIIGTLVLAHQALQAEAASGEVRS | not failed
MLGLGVDRLQADINRLLASLFHQGVLDEQFLQLQQLQDETSPNFVYDVINIYFDESEKLLRNLRLLLMDREFSDYKKIGLHLNQLVGSSSSIGARRVRNVCVAFRSASELSNRPGCLRGLEVVEHEYHYLKNMMHELFQWLQLEQQRILAAGVRYPM | failed
MLGNKVVSSPLVAALVALAVRLLAHNFSHHIHLPYHFGITTSKTGSEIWKEAVFWKQQFGVVPAFLTTVGPWFMEYIPPASSDAYVIFLCLCDALTVYIVSRWPSAKPQLTYALFVLNPIMALLPMLESLAPLEHVLLAVILECCRKRRIHPWLIFAARLLAPLLGFHFIAIIVALWYPVGTPCPKIALVGVALCTACIGGCGMLYLRWWGEHVERTSLYSPPDNGVMWYVRLLIMAAFHRSMEVGQIELPAVLTLIFSTGVPCEKEAAAETMKDGGAIPGDRRLLVTLLAICFSKLFCEHVILADYMITVFFLYSLLEVKGRGGFKSMLDRVRGLNIFLPICTLLLGVPLQYAFYTGWVMWDMANPNWVFFPQVAFVTGGGLFLLAFVNSLVDAMKEECVAGITKEKQA | failed
MLGSTDLVLLGKVVATHGIRGQLSVVPFSGEFSTILSMQTVYLSGPDNRKESFEVDRAAVHRNRVLLTLKGFANINEVLHLVGRELFARRDQFPPLDEGEFYWCDLIGLSVTTSEGLSLGRIEEIIATGSNDVYVVRDGEREYLIPALEDIVVGVDLDKGIMTVSPTEGLLDLLEHHHHHH | not failed
MLGTSFNNFGISLSHKRYFSGKVDEIIRCTMGKRIVKISSTKINTSILSSVSEQIGENITDWKNDEKKVYVSRVVNQCIDKFCAEHSRKIGDNLRKQIFKQVEKDYRISLDINAAQSSINHLVSGSSYFKKKMDELCEGMNRSVKNDTTSNVANLISDQFFEKNVQYIDLKKLRGNMSDYITNLESPFLEHHHHHH | failed
MLIAILLLLLSIFNIFIGKKVKDKNLAHLLSGFDKEKDDLEYVSSVLGNTFKWIGNLGVIITAIYLILINSISVGLYLICYVGVIILFTVNLTFKTDRHRRSKLKASK | failed
MLIALLLISYQLIKHGYRAADIKNLYTILEGEELRRQKDLSAKLRWGIVDEILWTIIVANGAILFTAHYVLIGLKILDLIAIFVVMLSGVMLYAPLAFLFLYPVVRAFEKNFPPSNPQFLLSHGLICTVSSLIVYEKLEQLWWDPLLVGFFWIAAGFVSFFTNRRFEVLVFLLLIAPLALLSVKCPGAILPILLAKSECSLRIQATFLVKLAVLIFASLAAVALVLQVFGYKSLRELSEKRKAAIKQGKYNPLRDPIIWIAWIMLTSLGLLIASFMERGEISPNML | failed
MLIATFFFTSHFSRAKQPMWYNGLLDLSVWQVIAVTLAMTHVTIVGVTVYLHRYSAHRSLELNAGLKHFFRFWLWLTTAQNTREWTAIHRKHHAKCETVDDPHSPVVKGLSTVLRKGAELYREEAQNQDTLRIYGKNCPEDWIERNLYSRYKMLGIVLMAVIDLALFGAIGITVWAIQMMWIPFWAAGVVNGLGHAVGYRNFECRDAATNLVPWGIVIGGEELHNNHHTYPNSAKLSVKPWEFDMGWAWIKLFSFLRLAKVQRVAPIAHRVEGKGHIDMDTAMAILNNRFQIMAQYRKLVIAPLVTQELAKADESVRHQFRRAKRLLSRETSLLDDKHHLRIQTMLEHSHALKVIYEKRLALQQIWVKTSSNGHDMLSAMKEWIHEAEASGIQSLREFADQLKTYSLRPVHA | failed
MLIAVPLDDTNFSENLKKAKEKGADIVELRVDQFSDTSLNYVKEKLEEVHSQGLKTILTIRSPEEGGREVKNREELFEELSPLSDYTDIELSSRGLLVKLYNITKEAGKKLIISYHNFELTPPNWIIREVLREGYRYGGIPKIAVKANSYEDVARLLCISRQVEGEKILISMGDYGKISRLAGYVFGSVITYCSLEKAFAPGQIPLEEMVELRKKFYRL | not failed
MLICNDKSNPKTLLEEIMALRPWRKGPFEISQIKIDSEWDSSIKWDLVKNATPLKDKVVADVGCNNGYYLFKMLEHGPKSLVGFDPGVLVKKQFEFLAPFFDKEKKIIYESLGVEDLHEKYPNAFDVIFCLGVLYHRKSPLEALKALYHALKIKGELVLDTLIIDSPLDIALCPKKTYAKMKNVYFIPSVSALKGWCERVGFENFEILSVLKTTPKEQRKTDFILGQSLEDFLDKTDPSKTLEGYDAPLRGYFKMLK | failed
MLIDSLHVSFDSFNFESILPMLVLVCGGIFTLLINAFTSRFSRNLNVFLCMLFLVLDFLVVLGLEEQENAFFGFLSLDTLSLISQSIVLISAFLLIFLALSKERFNEFQTAEFYSLYLFIVAGFQFMVSSNHLLLILIGLETASLPLCVLMALSDKRYGLEAGIKYFTMGAMASAFFAMGAMAFYLLTGSLNLEVITLYLHTEGITNPMLFAMGAIFLIGAIGFKVSLVPFHTWMPDVYEGNNPVFASYISIVPKIAGFVVATRLFGAFIDTRTAWVEDIFYVLILMTITIPNFIALWQEDVKRMLAYSSISHSGFALACVFIHTEDSQQAMFVYWFMFAFTYIGAFGLLWLLKSREKTWDERYDHPYSKFNGLIKTHPLVAILGAIFVFGLAGIPPFSVFWGKFLAVESALESNHILLAVVMLVNSAVAAFYYFRWLVAMFFNKPLQSYAQNDIYTQNATMPIYAVIIAMALACLFSVFMMRGLLEFVA | failed
MLIEILEFASILALVAVLTLTVMLQDIFFIDINKQYTETRIGTIIFSIRMLFGAWVIFVTETTIIAISKVTAIQLIILLLIWVCSKYVQKTRENWLITIVAFVIYGVGTYIYIQFAFKGY | failed
MLIGAIVAKDDTWLLWAIIIVWATVSLFLEQRYRWASTISGAIIALVGAMLLSNFKVIPMSAPVYDTVWDYIVPLSIPLLLFSSNILKIWKESRRLLVIFFVASIGTMIGTTVGFMILNQWIPYLNKIGAMMTGSYIGGGVNFAALSSKLETPSEMISSTVVADNSVMALYFMLLIALPSLPLIKKQFKSDYESKSTPESQQAYWEPKKIQLLDIAFSIASAVTLVAVSFKGADLIQQWMPQHNVVLTLIVSFLGDPYLLLTTLTLIVVAVWGDFFESLAGASEIGTFLIYIFFVVIGTPASFATIITTAPLLFIFVIIILVFNLGLSLIFGKIFGFKIEEILLASNATAGGPTTAAALAIGKGWTKVVGPILIIGTLGYVIGNYAGTLMYQLLTYLG | failed
MLIGEIMDLNLKNFLEDREEIIRDAKRKDEKSFKDFKKIVEEIKERENKDKIVCDFTEYNPLHKGHKYALEKGKEHGIFISVLPGPLERSGRGIPYFLNRYIRAEMAIRAGADIVVEGPPMGIMGSGQYMRCLIKMFYSLGAEIIPRGYIPEKTMEKVIDCINKGYHIQVKPYKIICIETGEILGEKLNIDNYVIASMSQMIYKLNREGLKFNPKFVFVKRLEGISGTKIREAIFSGKFEDIKNMLPKTTLSILKELYDNGKLNELILKRFEDRILETANEYDLYEYLPSNVAEILEKKRPFNNIEEIKNSLPYGFSRHFRERILSKLEARIPNETLSKYINNYPAKIKILAVKL | not failed
MLIINGKIIPIAHTICAFSAFFAALVTGYSLHFHKIVTNAHYTYPDEWFPSVSATIGDRYPERSIFQILIALTAFPRFLLLLGHYYLNQSKVCFLVGVLRTVSCGGWVYITSTDDHDIHDIFMITYIVLTLPWDIMITRYSSPLTSKNKGLTATIFFGTLFPMIYWYIQHSVQQRAGAYSIYAYFEWSLILLDIAFDAFAYADFKKIDIVLAFNEKPGNTSFFQIRDSSPINYGEEKSSELQKSGEKKVEKEKPVARSATGSYFRFDSFFYLLTNIFNGFLFWSNVTSLLCSIWHFPLWYMGISGYEAAILGYLGPIFLYLPFVSEAFTQYGVLLGGIIAIGAYIVQMPELRLISVAVGTSITVATFVQNLRYITNAETSFSFALTWLLGLVASVILKMGFYTNNPTWVILDERNGGYNKTALVLTVLFGMLSPYVNSINFEGKRNAQAKSASLIGKLFLAVGFGSLLFGIHQLLTDSSTTIYWAWEGYNESHGPLPWPWGALTCTVMLFASLSSVKFMGKPLVPCLLLLISTAVLSARSITQWPKYIFGGLLYAIAMLWLVPSYFSALGQVQNIWVYVLSFSVYIIFVLAHVWVVAYAFVPMGWVLREKIETVLAFSSTFIIIGALTCKNLNIQLVTMGKKFFIYVFFFAVALLSLTARFVYDIRPTGIPQPYHPDSQLITAGIWTIHFGLDNDMWASEDRMINLIKDMELDVVGLLETDTQRITMGNRDLTSKLAHDLNMYADFGPGPNKHTWGCVLLSKFPIVNSTHHLLPSPVGELAPAIHATLQTYNDTLVDVFVFHSGQEEDEEDRRLQSNYMAKLMGNTTRPAILLSYLVVDPGEGNYNTYVSETSGMHDIDPSDDDRWCEYILYRGLRRTGYARVARGTITDTELQVGKFQVLSEQALVEHSDSMYEYGHMSEPEYEDMKFPDKFLGEGERGHFYHVFDEPRYYL | failed
MLIKLRKQKQDENISFFSHFFAVFTGIFFVMTVIIIQVMHFGIYSSVDNSLKIATENVNDYVNMTLSHNNPITEAENGDASFKVKSNGQMAANTDTILYDKKHNVINNVNAFSSLYHIRPKLKDIGDIVEQEAKNIYGQTEKYRTVTVKVNNDFYPQIKFATIVINTTQLEEANTRYVTIIISVMIVFWLISVIASVYLAKWSQKPILENYEKQKSFVENASHELRTPLAVLQNRLESLFRKPEATILDSSESIASSLEEVRNMRMLTANLLNLARRDDGIKPEITEIQPRFFDDTFKNYEMIARENGKKLHIINKVNRQIKTDKTLLKQLMTILFDNAVKYTDNDGEIWLDVKTTDRSLIFSVADNGQGISDEDKKKIFDRFYRVDKARTRQKGGFGLGLSLAKQITDSLKGSIIVKDKKPQGVMFEARLLANK | failed
MLILAIPGYIYYHQQQEQAANQQLGQILPVYEQGNFQQALDGTGDRAGLLAIADDYGGTDAGNLATFYAANALYQRDEYDRALTYYQRFEKEKDFIGASAYAAQAAIQETRGSFERAGGLYEQAASQYQNKLTAPRYLLNAGQAYEEAGQYEAAIGVYERIQEEYPDSEQASNAERYLARAKVHQGSTSSS | failed
MLIRRKIMQYNDMSKEELLVLKESLNKEYAEAKAKGLALDMSRGKPSAKQLDVSLGLLDTINSSSDLKSLDGTDCRNYGVLDGIPEAKKLMADMMGTTPDHVIVYGNASLNIMYDQISRAYTHGILGNTPWCKLDKVKFLCPVPGYDRHFAITERFGIEMINIPMSESGPDMGMVEEYVSKDASVKGIWCVPKYSNPQGYTYSEETVKRMAALKPAAEDFRIFWDNAYVIHDLYDDNKDEIADIISECEKAGNPDMVFEFASTSKVSFPGSGIAALATSANNIADIKKQLTIQTIGHDKLNQLRHVRFFKDINGLKEHMRKHAEFIRPKFEAVESVLEEELSGLGIGSWTEPKGGYFISFDAMDGCAKAIVAKCKEAGVKLTGAGATFPYGKDPKDSNIRIAPSFPTPEEMKQAADLFVLCVKLVSVEKLLENK | failed
MLITLPYFLTRKTLPGYIIGGDTLVHAAIARGIYLGRNPFLDQTYNVYPSWYPFLYHLIVAVTSKVFQISIEGAMLLLQATLAILGCIVFFYVAKNLWGSTAGIMAMAFSLMFLPFHRYPNPKELIPIFGALFILYFVKERWVLSGIILGLGLWSHYASMFPLFVLPLTVYIFTRRKEVITPLLISTIVFLPFAINIISHADHIIPKVEDIYAFWKTDTLEKKLLSLLPPIYLVPFLLLSLYKFYKRRDYEGTVLFLSVVTIWGLRLLPESLKPFGIQIWSTRFTVPLPTIYLLLSAYGISEIKITSKDIKTIFLGILLFLIPIASALNFWEAIKRDPFIWVSEFELKEYFPEEHFIEVSEWIKANTERDNLIATSEEAGMMINALTGRPIMATLYGHGNTFLDNEIRRKDLELLFTADCKEKAKIISKYKIKYIVLDTFVYKRWEVKDMSCIAEPVYKVENVTILRVNLNITYTNKGEIRMNKKLFWLLLIAFVVNFSVIYGRKNPCWRKWRRYDNSHGHD | failed
